{"source": "patent US20050136061A1", "about": "(published 2005)", "target": "HIV-1 IIIB transmembrane glycoprotein gp41 (HIV-1 IIIB)", "assay": "cell-based or functional assay", "note": "No end group written: not given here."}
{"binder": "WQEWEQKITALLEQAQIQQEKNEYELQKLDKWASLWEWF (not fully specified)", "note": "[T-1249 peptide]", "values": [{"measurement": "IC50, inhibition of HIV-1 IIIB infection of MT4-Luc cells (HIV LTR-luciferase reporter assay)", "value": "~3.3", "unit": "nM"}]}
